Test results: US20240092918A1 (Novartis, published 2024)

Tests used:
Human CCR7 [1] = biological target: T1, Human CCR7 (human, UniProt P32248 25-378); test: cell-based or functional assay
T1 sequence: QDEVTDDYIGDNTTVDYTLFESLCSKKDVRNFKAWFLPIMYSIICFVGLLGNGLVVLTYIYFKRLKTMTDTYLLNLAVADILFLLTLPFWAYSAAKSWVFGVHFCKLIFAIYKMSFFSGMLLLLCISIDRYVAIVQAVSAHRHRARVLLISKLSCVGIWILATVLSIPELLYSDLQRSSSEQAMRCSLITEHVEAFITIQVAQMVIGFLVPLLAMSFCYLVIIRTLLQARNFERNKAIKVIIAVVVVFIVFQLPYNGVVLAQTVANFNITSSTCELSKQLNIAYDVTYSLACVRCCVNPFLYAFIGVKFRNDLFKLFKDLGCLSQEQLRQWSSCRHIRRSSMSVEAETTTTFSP

Human CCR7 [2] = biological target: T1, Human CCR7; test: FACS binding assay
Human CCR7 [3] = biological target: T1, Human CCR7; test: cell-based or functional assay; remark: listed apart in the source
Human CCR7 [4] = biological target: T1, Human CCR7; test: cell-based or functional assay; remark: listed apart in the source
Human CCR7 [5] = biological target: T1, Human CCR7; test: cell-based or functional assay; remark: listed apart in the source

B1: 674J13 non-humanized CysMab (antibody, human IgG1, kappa, V domains shown)
VH: DVQLQESGPDLVKPSQSLSLTCTVTGYSITSGYSWHWIRQFPGNKLEWMAHIHSSGSTNYNPSLKSRISIIRDTSKNLFFLQLNSVTTEDTATYYCARGGVQAFAYWGQGTLVTVSA
VL: QIVLTQSPAIMSASPGEKVTMTCSASSSVIYMHWYQQKSGTSPKRWIYDTSKLASGVPARFSGSGSGTSYSLTISSMEAEDAATYYCQQWSSNPLTFGAGTTLELKR
For B1, the “ADCC activity; IC50 (nM); surrogate ADCC reporter assay, JVM2 target cells and Jurkat-V158 effector cells” value (Human CCR7 [1]) was 1.09 nM.

B2: 674J13.CysMab.DAPA.AURIX2 (antibody, human IgG1, kappa, V domains shown)
VH: DVQLQESGPGLVKPSQTLSLTCTVSGYSITSGYSWHWIRQHPGKGLEWMAHIHSSGSTNYNPSLKSRITISRDTSKNQFSLKLSSVTAADTAVYYCARGGVQAFAYWGQGTLVTVSS
VL: EIVLTQSPATLSASPGERVTMSCSASSSVIYMHWYQQKPGQAPRRWIYDTSKLASGVPARFSGSGSGTDYTLTISSMEPEDAAVYYCQQWSSNPLTFGQGTKLEIKR
modifications: DAR LC 0.03; AURIX2 on the engineered cysteines; DAR HC 3.93
notes: also called 674J13.DAPA.AURIX2
B2 was tested, and the “geometric mean fluorescence intensity, difference from the unconjugated antibody” value (Human CCR7 [2]) was at most 20%, the “ADC activity in cell viability assay; IC50 (nM); CML-T1 cells (~29,000 CCR7 receptors)” value (Human CCR7 [3]) was 3.78 nM and the “ADC activity in cell viability assay; IC50 (nM); DEL cells (~100,000 CCR7 receptors)” value (Human CCR7 [3]) was 0.242 nM. For the same binder, the “ADC activity in cell viability assay; IC50 (nM); KE97 cells (~100,000 CCR7 receptors)” value (Human CCR7 [3]) was 0.102 nM and the “ADC activity in cell viability assay; IC50 (nM); SR786 cells (~28,000 CCR7 receptors)” value (Human CCR7 [3]) was 2.74 nM.

B3: 506E15 (Humanized CysMab DAPA) (antibody, human IgG1, kappa, V domains shown)
VH: EVQLVESGGGLVKPGGSLRLSCAASGFTFSSYAMSWIRQAPGKGLEWVATISSGGSFTYYPDSVKGRFTISRDNAKNSLYLQMNSLRAEDTAVYYCARRASTVVGTDFDVWGQGTTVTVSS
VL: DIQMTQSPSSLSASVGDRVTLTCRASQDIGSSLNWLQQKPGKAIKRLIYATSSLDSGVPSRFSGSRSGTDYTLTISSLQPEDFVVYYCLQYASSPPTFGGGTKLEIKR
In the case of B3, the “pHrodo (6 h MFI), uptake of pHrodo-labelled antibody at 5 ug/ml, CD4+ T cells (2000 receptors)” value (Human CCR7 [4]) is reported as 429 MFI, the “pHrodo (6 h MFI), uptake of pHrodo-labelled antibody at 5 ug/ml, CMLT1 cells (19583 receptors)” value (Human CCR7 [4]) is reported as 465 MFI and the “pHrodo (6 h MFI), uptake of pHrodo-labelled antibody at 5 ug/ml, DEL cells (110685 receptors)” value (Human CCR7 [4]) is reported as 3060 MFI. For the same binder, the “pHrodo (6 h MFI), uptake of pHrodo-labelled antibody at 5 ug/ml, JVM3 cells (8717 receptors)” value (Human CCR7 [4]) was 238 MFI, the “pHrodo (6 h MFI), uptake of pHrodo-labelled antibody at 5 ug/ml, Jeko-1 cells (28852 receptors)” value (Human CCR7 [4]) was 908 MFI and the “pHrodo (6 h MFI), uptake of pHrodo-labelled antibody at 5 ug/ml, KE97 cells (152093 receptors)” value (Human CCR7 [4]) was 2720 MFI. The “pHrodo (6 h MFI), uptake of pHrodo-labelled antibody at 5 ug/ml, L540 cells (167549 receptors)” value (Human CCR7 [4]) was 16100 MFI, the “pHrodo (6 h MFI), uptake of pHrodo-labelled antibody at 5 ug/ml, L1236 cells (61602 receptors)” value (Human CCR7 [4]) was 3130 MFI and the “pHrodo (6 h MFI), uptake of pHrodo-labelled antibody at 5 ug/ml, MJ cells (111121 receptors)” value (Human CCR7 [4]) was 3870 MFI. For the same binder, the “pHrodo (6 h MFI), uptake of pHrodo-labelled antibody at 5 ug/ml, MOTN1 cells (84200 receptors)” value (Human CCR7 [4]) was 2900 MFI and the “pHrodo (6 h MFI), uptake of pHrodo-labelled antibody at 5 ug/ml, Mec2 cells (50840 receptors)” value (Human CCR7 [4]) was 3090 MFI.

B4: 506E15 humanized CysMab (Fc Wild Type) (antibody, human IgG1, V domains shown)
VH: EVQLVESGGGLVKPGGSLRLSCAASGFTFSSYAMSWIRQAPGKGLEWVATISSGGSFTYYPDSVKGRFTISRDNAKNSLYLQMNSLRAEDTAVYYCARRASTVVGTDFDVWGQGTTVTVSS
VL: DIQMTQSPSSLSASVGDRVTLTCRASQDIGSSLNWLQQKPGKAIKRLIYATSSLDSGVPSRFSGSRSGTDYTLTISSLQPEDFVVYYCLQYASSPPTFGGGTKLEIK
With B4 the “ADCC activity; IC50 (nM); surrogate ADCC reporter assay, JVM2 target cells and Jurkat-V158 effector cells” value (Human CCR7 [1]) was 0.054 nM.

B5: 506E15.CysMab.DAPA.AURIX2 (antibody, human IgG1, kappa, V domains shown)
VH: EVQLVESGGGLVKPGGSLRLSCAASGFTFSSYAMSWIRQAPGKGLEWVATISSGGSFTYYPDSVKGRFTISRDNAKNSLYLQMNSLRAEDTAVYYCARRASTVVGTDFDVWGQGTTVTVSS
VL: DIQMTQSPSSLSASVGDRVTLTCRASQDIGSSLNWLQQKPGKAIKRLIYATSSLDSGVPSRFSGSRSGTDYTLTISSLQPEDFVVYYCLQYASSPPTFGGGTKLEIKR
modifications: AURIX2 on the engineered cysteines; DAR 3.80
notes: also called 506E15.DAPA.AURIX2
For B5, the “geometric mean fluorescence intensity, difference from the unconjugated antibody” value (Human CCR7 [2]) was at most 20%.

B6: 506E15 Parental (antibody, V domains shown)
VH: EVMLVESGGGLVKPGGSLKLSCAASGFTFSSYAMSWIRQTPEKRLEWVATISSGGSFTYYPDSVKGRFTISRDNVKNTLYLQMSSLRSEDTAMYYCARRASTVVGTDFDVWGAGTTVTVSS
VL: DIQMTQSPSSLSASLGERVSLTCRASQDIGSSLNWLQQEPDGTIKRLIYATSSLDSGVPKRFSGSRSGSDYSLTISSLESEDFVVYYCLQYASSPPTFGGGTKLEIK
B6 was tested, and the “506E15 IC50 (nM); ADCC reporter assay, ALL-SIL cells (6,200 CCR7 receptors)” value (Human CCR7 [5]) was 0.008 nM, the “506E15 IC50 (nM); ADCC reporter assay, CMLT-1 cells (29,000 CCR7 receptors)” value (Human CCR7 [5]) was 0.011 nM and the “506E15 IC50 (nM); ADCC reporter assay, DEL cells (62,000 CCR7 receptors)” value (Human CCR7 [5]) was 0.074 nM. For the same binder, the “506E15 IC50 (nM); ADCC reporter assay, DND-41 cells (1,700 CCR7 receptors)” value (Human CCR7 [5]) was 0.002 nM, the “506E15 IC50 (nM); ADCC reporter assay, JVM2 cells (66,500 CCR7 receptors)” value (Human CCR7 [5]) was 0.046 nM and the “506E15 IC50 (nM); ADCC reporter assay, Jurkat V158 cells (3,400 CCR7 receptors)” value (Human CCR7 [5]) was 0.004 nM. For the same binder, the “506E15 IC50 (nM); ADCC reporter assay, MOTN-1 cells (64,600 CCR7 receptors)” value (Human CCR7 [5]) was 0.077 nM, the “506E15 IC50 (nM); ADCC reporter assay, PEER cells (8,700 CCR7 receptors)” value (Human CCR7 [5]) was 0.038 nM and the “506E15 IC50 (nM); ADCC reporter assay, SR786 cells (27,800 CCR7 receptors)” value (Human CCR7 [5]) was 0.011 nM.
